Results as given in patent publication US12551573B2, “Compositions and methods for the targeting of PCSK9” (Scribe Therapeutics Inc., priority 2022, dated 2026).
Substitutions are numbered along the chain they refer to.

B1: DOMAIN_16246 (protein, listed as Macaca mulatta)
chain: ASVTVTFDDVALYFSEQEWEILEKWQKQMYKQEMKTNYQTLDSLGYAFSKPDLITWMEQGRMLFISEQGCLDKTRRTTSPP
B2: DOMAIN_15669 (protein, listed as Callorhinus ursinus)
chain: FQDSVTFEDVAVRFSSGEWQCLTRAQRHLYADVMLENYWNVISVGFAVPKPPLISHLEQGAEPCVQDLQDGGFLSCSFPVS
B3: DOMAIN_14983 (protein, listed as Rhinopithecus roxellana)
chain: MAFEDVAVYFSQEEWGLLDTAQRALYRRVMLDNFALVASLGLSTSRPRVVIQLERGEEPWVPSGTDTVLSRNTYRRRNPGS
B4: DOMAIN_15638 (protein, listed as Sapajus apella)
chain: B3 chain with T67M, V68T, L69M, Y74H, P79S, S81F
B5: DOMAIN_15406 (protein)
chain: B3 chain with T65K, T67M, V68T, S70A, R75G, R77L, P79S
modifications: Pan troglodytes
B6: DOMAIN_14746 (protein, listed as Odocoileus virginianus)
chain: VTELLTFKDISVDFTQEEWGQLAPAHRNLYREVMLENYGNLVSVAGCQLSKPSVISQLEKGEEPWMTEKEGAGDPSSDLKS
B7: DOMAIN_15251 (protein, listed as Callithrix jacchus)
chain: AAGRVTFEDVTVSFTKGEWQQLNPEQRELYRDVMLENYGNLVSVGLEETSKPSVILRLEEGKEPWSEEEVLRGGRPEKNWD
B8: DOMAIN_16050 (protein)
chain: PLESVTFEDVAVDFTQEEWSLLDKSQKNLFRNVMLETVTHLVSVGYQISKSDVIFQLEQGKELWPEAAGGLQGQSPDEVTP
modifications: Ovis aries
B9: DOMAIN_15356 (protein, listed as Acinonyx jubatus)
chain: TPDVVTFEDVAVCFSSGEWQCLTRAQRHLYTDVMLENYGNMLSAGLACPKPPLISHLEQGAVPCAEDLQDWGFLTCSFPVS
B10: DOMAIN_15227 (protein, listed as Rhinopithecus roxellana)
chain: MAFEDVAVYFSQEEWGLLDTAQRALYRHVMLDNFTLVTSLGLSTSRPHVVIQLERGEEPWVPSGKDMTLARNTYRRLNAGE
B11: DOMAIN_16611 (protein, listed as Papio anubis)
chain: B10 chain with D32E, H48Y, E81S
B12: DOMAIN_16566 (protein, listed as Odocoileus virginianus)
chain: HQESLTFKDVAVNFTQEEWHHVDAAQRRLYKDVMLENYSHLVSLGYQVSKPEVIFKLEQGEEPWIAEGEIQRPVCPDWKTR
B13: DOMAIN_15863 (protein)
chain: CWGLLSFKDISMEFTWEEWQLLDSAQKYLYRDVILENYSHLVSLGYHGTKPDLIFKLEQGEEPWMINARVSRQSYPEGWKE
modifications: Vulpes vulpes
B14: DOMAIN_15184 (protein, listed as Acinonyx jubatus)
chain: ASVVFEDVAVNFTPEEWALLNPGQRKLYRDVMLETCRNLSAVGCRSQGNTSTPRPQWSILLNEPPGEDKTGIFTRKDSCSV
B15: DOMAIN_14287 (protein, listed as Bos indicus)
chain: VQGSVSFEDVAVGFSQEEWQILGPSQKALYWDVMLENYCNLVSVGYQAPTPNSLFQLEQGGPPWTVEGAALSPTCSGKKLY
B16: DOMAIN_16115 (protein, listed as Bos taurus)
chain: B15 chain with P73S, K78Y, K79Q, L80A, Y81T
B17: DOMAIN_14714 (protein, listed as Odocoileus virginianus)
chain: PQESVTFEDVAVNFSYEEWQCLTHAQRHLYTDVMLENYGNMVSLGFSFSKPPLISRLEQGTEPYVQDRQDWEFLNCSYPAA
B18: DOMAIN_14546 (protein)
chain: GLLSFEDVALYFTREEWDTLDWAQKALYRDVMLDNYRHIVSLGFPFPKPEVICQLEQWEEPWILDLPRAGTRKASGSACPD
modifications: Muntiacus muntjak
B19: DOMAIN_15800 (protein, listed as Otolemur garnettii)
chain: MAFEDVAVYFSQEEWGLLDTAQRALYRHVMLENFTLVSSLGLSTSRPRVVVQLERGEEPWVPSRIDSTPARNAQGRRNPGS
B20: DOMAIN_15839 (protein, listed as Callithrix jacchus)
chain: AQESMTFRDVAVFFSQDEWLHLDSAQRALYREVMLENYSTLVSLGIPFSMPKVIHQLQQGQDPCTVEGDVPSNTCLGFKTW
B21: DOMAIN_15269 (protein)
chain: YRGPVTFKDITVEFTREEWKLLDTAQRTLYREVMQENYSHLISVGYCANRPNAIFKLKQGKEPWILEVQFPRQKNPEDLCN
modifications: Ovis aries
B22: DOMAIN_15138 (protein)
chain: CEGSVSFEDVTMDFSREEWQQLDPAQRCLYQDVMLEIYSHLLFVGYNIPNPEIISRMEKGEEPWMREVQLPHQRHRERAFG
modifications: Vulpes vulpes
B23: DOMAIN_15089 (protein)
chain: SQELVAFEDVLVDFTPEEWQYLNSSQKTLYREVMLETYSNLVSVAGQQDTKPDLILKLELEGPCLAERKISVWSFPEEACQ
modifications: Vulpes vulpes
B24: DOMAIN_14946 (protein, listed as Acinonyx jubatus)
chain: LQVSVSFEDVTVNFSREEWQRLDPAQRRLYRDVTLENYSHLRSVGYQVPKPEVIFKLEQGEGPWTLEGETPHQSCSGEDIG
B25: DOMAIN_16534 (protein, listed as Acinonyx jubatus)
chain: SHGPLSFEDVAVAFTKEEWQQLDPAQRTLYRDVMLENFSHVISLGHPVSKPDVISKLEQGEEPWIIKRDVSDWIYPERETR
B26: DOMAIN_13691 (protein, listed as Sapajus apella)
chain: AQESVTFEDVAVNFTDREWQCLTYAQRHLYKDVMLENYGNMVSVGFLFPKPPLISHLERGVEPCVQDPQDRESLSCSCLVS
B27: DOMAIN_16461 (protein)
chain: B26 chain with L47P, P63L
modifications: Cebus imitator
B28: DOMAIN_16556 (protein, listed as Rhinopithecus roxellana)
chain: B26 chain with D16N, C21S, D32H, G39R, V44L, L47P, R71K, C78Y, L79P
B29: DOMAIN_15279 (protein, listed as Callithrix jacchus)
chain: VNDLVTFKDVAIDFSQEEWQWMNPAQKRLYRSMMLENYQSLVSLGLCVSKPYVISLLEQGREPWEMTSEMRRSPFSDWESI
B30: DOMAIN_15451 (protein)
chain: PLKLVTFEDVAVDFTQEEWSLLDKSQKNLFRNVMMETIHHLVSVGYQISKSDVISQLEQGKELWSKAAGGFQGQRPGEHQG
modifications: Bison bison
B31: DOMAIN_14082 (protein)
chain: SPTLVTFKDIHVNFTREEWNLLDAAQQIMYKDVMLENYKNLVSVGHQLPKPDVILQLEKGEEPWLVERGVRQDTRPDWDTA
modifications: Phyllostomus discolor
B32: DOMAIN_24125 (protein, listed as Saimiri boliviensis)
chain: B3 chain with S45T, T67M, V68T, L69M, T73A, Y74H
B33: DOMAIN_18563 (protein, listed as Aotus trivirgatus)
chain: IQGQVNFEDVFVYFSQEEWVLLDEAQRLLYRDVMLENFALMASLGHTSFTSHTVASLVMGPDWVDVTPAVATGTLSGSGPG
B34: DOMAIN_13121 (protein, listed as Macaca fascicularis)
chain: GKELLSFEDVAMYFTREEWGRLDWGQKDLYRDVMLENYRNMVLLGFQFPKPEVICQLENWDEQWILDLPRAGSRKASGSAC
B35: DOMAIN_12912 (protein)
chain: B24 chain with R21H
modifications: Puma concolor
B36: DOMAIN_13269 (protein, listed as Desmodus rotundus)
chain: B24 chain with N13D, R21H, R31W, R42L, F55L, G77D
B37: DOMAIN_13277 (protein, listed as Macaca fascicularis)
chain: MTFEDVSVEFTQGEWGQLNPAQKDLYREVMLENFRNLAFLGLPVSKPYVICQLEEGGEPFIVEREVSTGAYSDWERRSKSK

The molecules below were run on HBEGF locus. Settings: high-throughput screen of dXR repression of the HBEGF gene; abundance of each domain in the library before and after diphtheria toxin selection; HEK293T cells.
Assay type: cell-based, human

| Molecule | Log2 (fold change) |
| --- | --- |
| B1 | 2.3971 |
| B2 | 2.8865 |
| B3 | 3.704 |
| B4 | 3.4277 |
| B5 | 3.4616 |
| B6 | 2.605 |
| B7 | 2.2209 |
| B8 | 2.7105 |
| B9 | 3.5466 |
| B10 | 3.5532 |
| B11 | 3.4786 |
| B12 | 3.3903 |
| B13 | 2.7434 |
| B14 | 3.0092 |
| B15 | 3.6232 |
| B16 | 2.9023 |

| Molecule | Log2 (fold change) |
| --- | --- |
| B17 | 3.2752 |
| B18 | 3.5039 |
| B19 | 3.4462 |
| B20 | 2.3399 |
| B21 | 2.0839 |
| B22 | 3.1771 |
| B23 | 2.3585 |
| B24 | 3.2842 |
| B25 | 2.7531 |
| B26 | 2.6205 |
| B27 | 3.1155 |
| B28 | 2.4217 |
| B29 | 3.8574 |
| B30 | 3.2905 |
| B31 | 3.2495 |

Same assay, conditions: high-throughput screen of dXR repression of the HBEGF gene; change in abundance of each domain in the library before and after diphtheria toxin selection

| Molecule | Log2 (fold change) |
| --- | --- |
| B32 | 3.9692 |
| B33 | 3.0406 |

Same assay, conditions: repressor domain in dXR, repression of the HBEGF gene; abundance of domain in library after vs before diphtheria toxin selection

| Molecule | Log2 (fold change) |
| --- | --- |
| B34 | 3.353 |
| B35 | 2.7422 |
| B36 | 2.7236 |
| B37 | 2.9151 |
